What follows are substances tested against HLA-A*02:01 (Homo sapiens, UniProt P04439, D140Y/D185E/D98H/E176V/E277Q/G131W/G231S/I119V/I121R/I166T/I218V/L300P/L318F/N151K/N90K/P208A/P217A/Q86G/Q94H/R138H/R169H/T345S) (assay: MHC binding assay (UV-ligand exchange, beta2m ELISA)). Details: binding to HLA-A*02:01, UV-ligand exchange.
Source text: Candidate peptides for T cell based therapies according to the present invention were further tested for their MHC binding capacity (affinity). The individual peptide-MHC complexes were produced by UV-ligand exchange, where a UV-sensitive peptide is cleaved upon UV-irradiation, and exchanged with the peptide of interest as analyzed. Only peptide candidates that can effectively bind and stabilize the peptide-receptive MHC molecules prevent dissociation of the MHC complexes. To determine the yield of the exchange reaction, an ELISA was performed based on the detection of the light chain (β2m) of stabilized MHC complexes. The assay was performed as generally described in Rodenko et al. (Rodenko et al., 2006).
96 well MAXISorp plates (NUNC) were coated over night with 2 ug/ml streptavidin in PBS at room temperature, washed 4× and blocked for 1 h at 37° C. in 2% BSA containing blocking buffer. Refolded HLA-A*02:01/MLA-001 monomers served as standards, covering the range of 15-500 ng/ml. Peptide-MHC monomers of the UV-exchange reaction were diluted 100 fold in blocking buffer. Samples were incubated for 1 h at 37° C., washed four times, incubated with 2 ug/ml HRP conjugated anti-β2m for 1 h at 37° C., washed again and detected with TMB solution that is stopped with […]. Absorption was measured at 450 nm. Candidate peptides that show a high exchange yield (preferably higher than 50%, most preferred higher than 75%) are generally preferred for a generation and production of antibodies or fragments thereof, and/or T cell receptors or fragments thereof, as they show sufficient avidity to the MHC molecules and prevent dissociation of the MHC complexes.

Peptide exchange (MHC class I binding score, peptide exchange yield)	Substance
“++” (≥20% = ++)	4 (TLLGFFLAKV; listed as Homo sapiens) [compound 4]
“+++” (≥50 = +++)	6 (TLITLPLLFL; listed as Homo sapiens) [compound 6]
“+++” (≥50 = +++)	10 (FLLVGTQIDL; listed as Homo sapiens) [compound 10]
“+++” (≥50 = +++)	11 (GLDTVVALL; listed as Homo sapiens) [compound 11]
“++” (≥20% = ++)	14 (LLSDPTPGA; listed as Homo sapiens) [compound 14]
“++++” (≥75% = ++++)	15 (IIIEDLLEA; listed as Homo sapiens) [compound 15]
“++” (≥20% = ++)	16 (TLIAAILYL; listed as Homo sapiens) [compound 16]
“+++” (≥50 = +++)	18 (KLTDQPPLV; listed as Homo sapiens) [compound 18]
“++++” (≥75% = ++++)	23 (ALVEDIINL; listed as Homo sapiens) [compound 23]
“++++” (≥75% = ++++)	31 (KLYDEESLL; listed as Homo sapiens) [compound 31]
“+++” (≥50 = +++)	32 (VLNEDELPSV; listed as Homo sapiens) [compound 32]
“+++” (≥50 = +++)	34 (LLWEDGVTEA; listed as Homo sapiens) [compound 34]
“++” (≥20% = ++)	38 (YLTAEILELAGN; listed as Homo sapiens) [compound 38]
“+++” (≥50 = +++)	39 (QLLPQGIVPAL; listed as Homo sapiens) [compound 39]
“+++” (≥50 = +++)	45 (FILDDSALYL; listed as Homo sapiens) [compound 45]
“+++” (≥50 = +++)	48 (KILDEDLYI; listed as Homo sapiens) [compound 48]
“++++” (≥75% = ++++)	49 (TILGDPQILL; listed as Homo sapiens) [compound 49]
“+++” (≥50 = +++)	50 (LLLDGLIYL; listed as Homo sapiens) [compound 50]
“+” (≥10% = +)	54 (DIFDAMFSV; listed as Homo sapiens) [compound 54]

Peptide exchange (MHC class I binding score, peptide exchange yield)	Substance
“++++” (≥75% = ++++)	55 (ILVEVDLVQA; listed as Homo sapiens) [compound 55]
“+++” (≥50 = +++)	56 (GLQDLLFSL; listed as Homo sapiens) [compound 56]
“+++” (≥50 = +++)	58 (QLAPFLPQL; listed as Homo sapiens) [compound 58]
“+++” (≥50 = +++)	63 (ALIEEAYGL; listed as Homo sapiens) [compound 63]
“++++” (≥75% = ++++)	64 (FLVEVSNDV; listed as Homo sapiens) [compound 64]
“+++” (≥50 = +++)	65 (NLTDVSPDL; listed as Homo sapiens) [compound 65]
“++++” (≥75% = ++++)	69 (TLLAFPLLL; listed as Homo sapiens) [compound 69]
“++++” (≥75% = ++++)	70 (VLIEILQKA; listed as Homo sapiens) [compound 70]
“++++” (≥75% = ++++)	71 (VLLDYVGNVQL; listed as Homo sapiens) [compound 71]
“++” (≥20% = ++)	72 (TLQEETAVYL; listed as Homo sapiens) [compound 72]
“+++” (≥50 = +++)	75 (AALKYIPSV; listed as Homo sapiens) [compound 75]
“++++” (≥75% = ++++)	76 (ALADLVPVDVVV; listed as Homo sapiens) [compound 76]
“++++” (≥75% = ++++)	77 (ALLDVSNNYGI; listed as Homo sapiens) [compound 77]
“+++” (≥50 = +++)	78 (AMEEAVAQV; listed as Homo sapiens) [compound 78]
“++” (≥20% = ++)	79 (AMKEEKEQL; listed as Homo sapiens) [compound 79]
“+++” (≥50 = +++)	80 (YLFDEIDQA; listed as Homo sapiens) [compound 80]
“++” (≥20% = ++)	81 (FIFSYITAV; listed as Homo sapiens) [compound 81]
“+++” (≥50 = +++)	82 (FLIDGSSSV; listed as Homo sapiens) [compound 82]
“+++” (≥50 = +++)	83 (FLMDDNMSNTL; listed as Homo sapiens) [compound 83]

Peptide exchange (MHC class I binding score, peptide exchange yield)	Substance
“+++” (≥50 = +++)	84 (FLQELQLEHA; listed as Homo sapiens) [compound 84]
“+++” (≥50 = +++)	85 (GLAPAEVVVATVA; listed as Homo sapiens) [compound 85]
“+++” (≥50 = +++)	86 (GLATIRAYL; listed as Homo sapiens) [compound 86]
“++” (≥20% = ++)	87 (GLFARIIMI; listed as Homo sapiens) [compound 87]
“+++” (≥50 = +++)	88 (GLFDNRSGLPEA; listed as Homo sapiens) [compound 88]
“+++” (≥50 = +++)	89 (GLTALHVAV; listed as Homo sapiens) [compound 89]
“+++” (≥50 = +++)	90 (HLDEVFLEL; listed as Homo sapiens) [compound 90]
“++” (≥20% = ++)	91 (HLSSTTAQV; listed as Homo sapiens) [compound 91]
“+++” (≥50 = +++)	92 (KLLFEIASA; listed as Homo sapiens) [compound 92]
“++++” (≥75% = ++++)	93 (KLLGSLQLL; listed as Homo sapiens) [compound 93]
“+++” (≥50 = +++)	94 (LLAGQATTAYF; listed as Homo sapiens) [compound 94]
“+++” (≥50 = +++)	95 (LLFDLIPVVSV; listed as Homo sapiens) [compound 95]
“+++” (≥50 = +++)	96 (LLLNENESLFL; listed as Homo sapiens) [compound 96]
“+” (≥10% = +)	97 (LLNFSPGNL; listed as Homo sapiens) [compound 97]
“+++” (≥50 = +++)	98 (MLQDGIARL; listed as Homo sapiens) [compound 98]
“++” (≥20% = ++)	99 (QLYDGATALFL; listed as Homo sapiens) [compound 99]
“+++” (≥50 = +++)	100 (RLIRTIAAI; listed as Homo sapiens) [compound 100]
“++++” (≥75% = ++++)	101 (SLDQSTWNV; listed as Homo sapiens) [compound 101]
“+++” (≥50 = +++)	102 (SLFAAISGMIL; listed as Homo sapiens) [compound 102]
